{
  "source": "paper PMC4315244",
  "about": "(The Journal of Cell Biology, 2015)",
  "binders": {"B1": {"name": "Nup159-QT4–5-Linker-H1 (domain or fragment, S. cerevisiae, UniProt P40477 1150-1244, looked up)", "chain": "VKKEAVDNGLQTEPVETCNFSVQTFEGDENYLAEQCKPKQLKEYYTSAKVSNIPFVSQNSTLRLIESTFQTVEAEFTVLMENIRNMDTFFTDQSS"}, "B2": {"name": "Nup159C (domain or fragment, S. cerevisiae, UniProt P40477 1082-1460, looked up)", "chain": "EDINTDELPHGGEAFKAREVSASADFDVQTSLEDNYAESGIQTDLSESSKENEVQTDAIPVKHNSTQTVKKEAVDNGLQTEPVETCNFSVQTFEGDENYLAEQCKPKQLKEYYTSAKVSNIPFVSQNSTLRLIESTFQTVEAEFTVLMENIRNMDTFFTDQSSIPLVKRTVRSINNLYTWRIPEAEILLNIQNNIKCEQMQITNANIQDLKEKVTDYVRKDIAQITEDVANAKEEYLFLMHFDDASSGYVKDLSTHQFRMQKTLRQKLFDVSAKINHTEELLNILKLFTVKNKRLDDNPLVAKLAKESLARDGLLKEIKLLREQVSRLQLEEKGKKASSFDASSSITKDMKGFKVVEVGLAMNTKKQIGDFFKNLNMAK"}, "B3": {"name": "Flag-Nsp1C (domain or fragment)", "chain": "not shown"}, "B4": {"name": "Nsp1C (domain or fragment)", "chain": "not shown"}},
  "key": {"SEC-MALS": {"target": "the molecule itself", "assay": "SEC-MALS"}, "Nup82-Flag-TEV-ProtA": {"target": "Nup82-Flag-TEV-ProtA (S. cerevisiae, UniProt P40368 1-713)", "sequence (P40368 whole entry)": "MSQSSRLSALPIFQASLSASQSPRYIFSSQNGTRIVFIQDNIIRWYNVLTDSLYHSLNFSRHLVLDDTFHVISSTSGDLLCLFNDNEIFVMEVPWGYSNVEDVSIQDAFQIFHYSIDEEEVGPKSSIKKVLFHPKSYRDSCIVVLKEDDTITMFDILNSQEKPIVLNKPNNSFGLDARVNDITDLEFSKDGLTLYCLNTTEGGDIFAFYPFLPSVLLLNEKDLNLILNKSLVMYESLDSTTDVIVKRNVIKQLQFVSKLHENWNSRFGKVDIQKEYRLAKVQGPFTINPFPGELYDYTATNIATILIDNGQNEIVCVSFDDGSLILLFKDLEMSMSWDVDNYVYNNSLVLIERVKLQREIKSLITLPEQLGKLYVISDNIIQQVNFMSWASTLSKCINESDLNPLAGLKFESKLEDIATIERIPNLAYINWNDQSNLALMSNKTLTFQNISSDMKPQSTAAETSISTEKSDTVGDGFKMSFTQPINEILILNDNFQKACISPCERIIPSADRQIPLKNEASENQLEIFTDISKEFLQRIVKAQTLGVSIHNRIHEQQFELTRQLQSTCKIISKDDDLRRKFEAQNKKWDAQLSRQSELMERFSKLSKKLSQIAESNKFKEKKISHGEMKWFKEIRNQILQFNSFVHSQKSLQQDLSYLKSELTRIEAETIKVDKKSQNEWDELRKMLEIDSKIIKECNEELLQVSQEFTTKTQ", "assay": "quantitative targeted mass spectrometry"}, "AUC + SEC": {"target": "the molecule itself", "assay": "AUC + SEC"}, "Nup82 (of the …)": {"target": "Nup82 (of the Nup82–Nup159tail–Flag-Nsp1C complex) (S. cerevisiae, UniProt P40368 1-713)", "sequence (P40368 whole entry, one chain of several)": "as the sequence (P40368 whole entry) above", "assay": "SEC-MALS"}},
  "data": [
    {"binder": "B1", "values": [
      {"measurement": "stoichiometry N", "setting": "SEC-MALS", "value": 4}
    ]},
    {"binder": "B2", "values": [
      {"measurement": "stoichiometry N", "setting": "Nup82-Flag-TEV-ProtA", "value": 1},
      {"measurement": "stoichiometry N", "setting": "AUC + SEC", "value": 2}
    ]},
    {"binder": "B3", "values": [
      {"measurement": "stoichiometry N", "setting": "Nup82 (of the …)", "value": 1}
    ]},
    {"binder": "B4", "values": [
      {"measurement": "stoichiometry N", "setting": "Nup82-Flag-TEV-ProtA", "value": 1}
    ]}
  ]
}
